Assay results from article PMC5028900.

How the values were obtained:
GST-MeCP2 AT-hook 2 = GST-MeCP2 AT-hook 2 (UniProt P51608); test: competition EMSA; details: 0.8 ug poly(dA-dT) against N1 probe; EMSA: 10 mM Tris-HCl pH 7.5, 50 mM KCl, 0.5 mM MgCl2, 0.1 mM EDTA, 0.1 mg/mL BSA, 5% glycerol; 0.5 ng probe in 20 uL; 30 min on ice; native 6% acrylamide gel
GST-MeCP2 AT-hook 1 = GST-MeCP2 AT-hook 1 (UniProt P51608); test: competition EMSA; details: 0.8 ug poly(dA-dT) against N1 probe; EMSA: 10 mM Tris-HCl pH 7.5, 50 mM KCl, 0.5 mM MgCl2, 0.1 mM EDTA, 0.1 mg/mL BSA, 5% glycerol; 0.5 ng probe in 20 uL; 30 min on ice; native 6% acrylamide gel

UniProt P51608, sequence (P51608 whole entry): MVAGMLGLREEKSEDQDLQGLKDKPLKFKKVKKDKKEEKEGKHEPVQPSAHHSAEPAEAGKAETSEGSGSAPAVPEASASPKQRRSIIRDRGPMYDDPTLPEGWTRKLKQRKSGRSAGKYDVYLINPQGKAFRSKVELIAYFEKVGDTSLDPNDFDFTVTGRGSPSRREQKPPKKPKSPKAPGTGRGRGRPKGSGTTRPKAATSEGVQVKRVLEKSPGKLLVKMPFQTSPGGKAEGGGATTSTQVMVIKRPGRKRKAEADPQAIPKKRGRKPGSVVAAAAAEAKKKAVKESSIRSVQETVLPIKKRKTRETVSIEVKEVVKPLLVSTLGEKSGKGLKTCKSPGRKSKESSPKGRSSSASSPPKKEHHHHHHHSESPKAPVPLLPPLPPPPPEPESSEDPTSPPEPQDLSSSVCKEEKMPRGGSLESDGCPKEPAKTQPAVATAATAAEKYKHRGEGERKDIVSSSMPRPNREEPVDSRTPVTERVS

poly(dA-dT) gave a binding signal (% of bound probe displaced) (GST-MeCP2 AT-hook 2) of 20 and a binding signal (% of bound probe displaced) (GST-MeCP2 AT-hook 1) of 67.
